Test results taken from PMC11480844.

B1: H2-Kb / B2 (parent)
chain 1: GEQVEQRPPHLSVREGDSAVIICTYTDPNSYYFFWYKQEPGAGLQLLMKVFSSTEINEGQGFTVLLNKKDKQLSLNLTAAHPGDSAVYFCAVSQMSNYNVLYFGSGTKLTVEP
chain 2: EAAVTQSPRNKVAVTGGKVTLSCNQTNNHNNMYWYRQDTGHGLRLIHYSYGAGSTEKGDIPDGYKASRPSQENFSLILELATPSQTSVYFCASGTGGSGQLYFGEGSKLTVL
chain 3: not shown
chain 4: IQKTPQIQVYSRHPPENGKPNILNCYVTQFHPPHIEIQMLKNGKKIPKVEMSDMSFSKDWSFYILAHTEFTPTETDTYACRVKHDSMAEPKTVYWDRDM
chain 5: SIINFEKL
B2: H2-Kb / B10 (parent)
chain 1: GQQVQQSPASLVLQEGENAELQCNFSSTATRLQWFYQRPGGSLVSLLSNPSGTKHTGRLTSTTVTKERRGSLHISSSQITDSGTYLCAPGGSNAKLTFGKGTKLSVKS
chain 2: DPKIIQKPKYLVAVTGSEKILICEQYLGHNAMYWYRQSAKKPLEFMFSYSYQKLMDNQTASSRFQPQSSKKNHLDLQITALKPDDSATYFCASSLRGGNNQAPLFGEGTRLSVL
chain 3: not shown
chain 4: B1 chain 4
chain 5: SIINFEKL
B3: H2-Kb / B14 (parent)
chain 1: GEQVEQRPPHLSVREGDSAVIICTYTDPNSYYFFWYKQEPGAGLQLLMKVFSSTEINEGQGFTVLLNKKDKQLSLNLTAAHPGDSAVYFCAVSARGNMGYKLTFGTGTSLLVDP
chain 2: GGIITQTPKFLIGQEGQKLTLKCQQNFNHDTMYWYRQDSGKGLRLIYYSITENDLQKGDLSEGYDASREKKSSFSLTVTSAQKNEMAVFLCASSMGQGASDYTFGSGTRLLVI
chain 3: not shown
chain 4: B1 chain 4
chain 5: SIINFEKL

Variants of: B1
Assay: % of reporter cells activated (NFAT-GFP), raw
Conditions: with B2; scale: % of reporter cells activated
Also: test concentration or dose not given here.

Variant	ratio to parent
chain 5 E6A	0.557
chain 5 E6L	0.53
chain 5 E6G	1.06
chain 5 E6F	0.584
chain 5 E6S	0.751
chain 5 E6P	0.741
chain 5 E6D	0.6
chain 5 E6Y	0.697
chain 5 E6K	1.8
chain 5 E6H	0.497
chain 5 E6V	0.422
chain 5 E6N	0.535
chain 5 E6C	0.811
chain 5 E6R	0.573
chain 5 E6I	0.67
chain 5 E6W	0.6
chain 5 E6Q	0.724
chain 5 E6T	0.746
chain 5 E6M	0.946
chain 5 I3D	0.481
chain 5 I3R	0.335
chain 5 I3Y	0.476
chain 5 I3C	0.795
chain 5 I3G	0.568
chain 5 I3F	0.324
chain 5 I3A	0.741

Variant	ratio to parent
chain 5 I3W	0.578
chain 5 I3S	0.4
chain 5 I3T	0.4
chain 5 I3K	0.427
chain 5 I3N	0.389
chain 5 I3L	0.724
chain 5 I3M	0.659
chain 5 I3E	0.432
chain 5 I3H	0.676
chain 5 I3Q	0.524
chain 5 I3P	0.692
chain 5 I3V	0.449
chain 5 S1F	4.16
chain 5 S1A	3.1
chain 5 S1R	5.53
chain 5 S1C	0.773
chain 5 S1E	0.768
chain 5 S1H	1.74
chain 5 S1I	10.3
chain 5 S1M	5.85
chain 5 S1P	6.59
chain 5 S1G	4.72
chain 5 S1Q	1.77
chain 5 S1W	8.98
chain 5 S1Y	6.51
chain 5 S1L	7.3

Variant	ratio to parent
chain 5 S1T	1.02
chain 5 S1K	2.57
chain 5 S1V	8.24
chain 5 S1D	2.9
chain 5 S1N	0.465
chain 5 K7N	1.84
chain 5 K7S	3.71
chain 5 K7M	2.53
chain 5 K7V	12.4
chain 5 K7Q	1.96
chain 5 K7P	3.7
chain 5 K7W	7.51
chain 5 K7E	1.49
chain 5 K7D	3.15
chain 5 K7I	1.95
chain 5 K7R	1.97
chain 5 K7G	7.31
chain 5 K7T	1.99
chain 5 K7A	4.46
chain 5 K7Y	2.46
chain 5 K7L	2.05
chain 5 K7F	4.64
chain 5 K7H	4.08
chain 5 K7C	2.46
chain 5 F5G	0.438
chain 5 F5Q	1.75

Variant	ratio to parent
chain 5 F5E	0.573
chain 5 F5I	1.82
chain 5 F5N	1.95
chain 5 F5L	3.33
chain 5 F5T	0.632
chain 5 F5Y	7.49
chain 5 F5A	1.27
chain 5 F5K	0.741
chain 5 F5C	3.54
chain 5 F5S	0.73
chain 5 F5V	0.346
chain 5 F5H	12.1
chain 5 F5W	0.519
chain 5 F5R	0.476
chain 5 F5P	0.703
chain 5 F5M	1.38
chain 5 F5D	1.06
chain 5 N4C	0.162
chain 5 N4L	0.503
chain 5 N4Y	0.481
chain 5 N4V	0.281
chain 5 N4T	0.373
chain 5 N4M	0.535
chain 5 N4D	0.541
chain 5 N4Q	0.259
chain 5 N4H	0.584

Variant	ratio to parent
chain 5 N4A	0.432
chain 5 N4E	0.416
chain 5 N4F	0.557
chain 5 N4W	0.449
chain 5 N4K	0.362
chain 5 N4P	0.503
chain 5 N4S	0.422
chain 5 N4R	0.324
chain 5 N4G	0.335
chain 5 N4I	0.557
chain 5 I2D	1
chain 5 I2H	0.93
chain 5 I2T	1.68
chain 5 I2S	0.714
chain 5 I2F	2.06
chain 5 I2K	1.18
chain 5 I2G	0.876
chain 5 I2Y	0.87
chain 5 I2L	4.69
chain 5 I2E	0.654
chain 5 I2Q	0.573
chain 5 I2W	0.768
chain 5 I2A	1.58
chain 5 I2V	1.91
chain 5 I2P	0.892
chain 5 I2N	0.589

Variant	ratio to parent
chain 5 I2C	1.2
chain 5 I2M	2.66
chain 5 I2R	1.36
chain 5 L8N	0.897
chain 5 L8W	2.09
chain 5 L8P	3.65
chain 5 L8Y	1.03
chain 5 L8C	2.06
chain 5 L8V	0.211
chain 5 L8G	0.849
chain 5 L8F	8.42
chain 5 L8M	3.42
chain 5 L8Q	2.52
chain 5 L8T	1.29
chain 5 L8I	0.708
chain 5 L8R	0.773
chain 5 L8A	8.62
chain 5 L8H	2.32
chain 5 L8K	1.17
chain 5 L8E	0.551
chain 5 L8D	0.914
chain 5 L8S	1.08

Variants of: B2
Assay: % of reporter cells activated (NFAT-GFP), raw
Conditions: with B10; scale: % of reporter cells activated

Variant	ratio to parent
chain 5 S1P	0.849
chain 5 S1F	0.678
chain 5 S1M	1.64
chain 5 S1I	1.1
chain 5 S1Q	0.831
chain 5 S1C	1.07
chain 5 S1W	1.07
chain 5 S1V	1.15
chain 5 S1G	0.831
chain 5 S1Y	0.966
chain 5 S1D	0.924
chain 5 S1R	0.627
chain 5 S1H	1.08
chain 5 S1N	1.71
chain 5 S1A	0.498
chain 5 S1L	1.32
chain 5 S1T	1.1
chain 5 S1E	0.864
chain 5 S1K	1.53
chain 5 N4P	1.81
chain 5 N4I	1.8

Variant	ratio to parent
chain 5 N4K	1.32
chain 5 N4R	1.37
chain 5 N4L	1.05
chain 5 N4C	2.85
chain 5 N4A	1.86
chain 5 N4M	0.932
chain 5 N4T	1.73
chain 5 N4S	1.01
chain 5 N4V	1.85
chain 5 N4F	1.51
chain 5 N4Y	2.14
chain 5 N4G	1.28
chain 5 N4D	2.53
chain 5 N4H	1.88
chain 5 N4E	1.19
chain 5 N4W	1.66
chain 5 N4Q	1.19
chain 5 L8A	1.07
chain 5 L8C	1.27
chain 5 L8K	1.12
chain 5 L8G	0.683

Variant	ratio to parent
chain 5 L8M	0.831
chain 5 L8S	0.903
chain 5 L8Q	1.11
chain 5 L8V	0.51
chain 5 L8Y	0.356
chain 5 L8T	0.915
chain 5 L8F	1.03
chain 5 L8H	0.966
chain 5 L8I	0.769
chain 5 L8W	0.814
chain 5 L8D	0.849
chain 5 L8N	0.915
chain 5 L8E	1.53
chain 5 L8P	1.39
chain 5 L8R	1.34
chain 5 K7Y	0.995
chain 5 K7T	1.22
chain 5 K7W	1
chain 5 K7V	1.37
chain 5 K7S	1.39

Variants of: B3
Assay: % of reporter cells activated (NFAT-GFP), raw
Conditions: with B14; scale: % of reporter cells activated

Variant	ratio to parent
chain 5 E6H	0.853
chain 5 E6K	0.707
chain 5 E6S	0.751
chain 5 E6C	1.16
chain 5 E6Y	0.853
chain 5 E6D	0.618
chain 5 E6G	1.08
chain 5 E6F	1.47
chain 5 E6I	0.729
chain 5 E6T	1.41
chain 5 E6Q	0.876
chain 5 E6M	0.822
chain 5 E6R	0.373
chain 5 E6L	0.622
chain 5 E6V	1.69
chain 5 E6P	0.867
chain 5 E6N	1.07
chain 5 S1L	1.13
chain 5 S1D	1.38
chain 5 S1H	1.24
chain 5 S1G	0.596
chain 5 S1Q	0.858
chain 5 S1K	0.564
chain 5 S1C	1.42

Variant	ratio to parent
chain 5 S1P	0.751
chain 5 S1E	0.867
chain 5 S1V	8.49
chain 5 S1M	0.444
chain 5 S1I	0.76
chain 5 S1R	2.04
chain 5 F5Y	0.578
chain 5 F5H	0.96
chain 5 F5I	0.831
chain 5 F5M	0.893
chain 5 F5G	1.07
chain 5 F5D	1.32
chain 5 F5E	1.08
chain 5 F5R	1.33
chain 5 F5L	1.11
chain 5 F5Q	0.582
chain 5 F5S	1.56
chain 5 F5K	0.636
chain 5 F5C	1.96
chain 5 F5W	0.724
chain 5 F5P	0.791
chain 5 F5T	0.609
chain 5 F5N	1.1
chain 5 I3D	1.46

Variant	ratio to parent
chain 5 I3E	1.28
chain 5 I3K	1.34
chain 5 I3M	0.84
chain 5 I3S	1.6
chain 5 I3V	1.6
chain 5 I3F	1
chain 5 I3R	0.858
chain 5 I3H	1.78
chain 5 I3P	2
chain 5 I3W	1.11
chain 5 I3Y	1.28
chain 5 I3C	1.96
chain 5 K7E	0.622
chain 5 K7Q	1.23
chain 5 K7F	1.42
chain 5 K7L	1.56
chain 5 K7A	0.907
chain 5 K7G	0.489
chain 5 K7P	1.64
chain 5 K7Y	1.69
chain 5 K7C	4.53
chain 5 K7W	1.26
chain 5 K7R	0.667
chain 5 K7T	1.73

Variant	ratio to parent
chain 5 K7D	0.791
chain 5 K7V	1.11
chain 5 K7M	0.787
chain 5 K7N	0.707
chain 5 L8C	1.41
chain 5 L8M	0.773
chain 5 L8A	0.609
chain 5 L8T	1.38
chain 5 L8V	0
chain 5 L8K	1.24
chain 5 L8I	1.51
chain 5 L8H	2.84
chain 5 L8S	0.716
chain 5 L8P	1.33
chain 5 L8W	1.11
chain 5 L8Y	1.07
chain 5 L8R	0.978
chain 5 L8D	1.24
chain 5 I2Q	1.07
chain 5 I2L	1.73
chain 5 I2K	1.04
chain 5 I2V	0.52
chain 5 I2M	1.4
chain 5 I2F	0.849

Variant	ratio to parent
chain 5 I2E	0.964
chain 5 I2G	0.907
chain 5 I2R	1.87
chain 5 I2Y	0.88
chain 5 I2N	1
chain 5 I2S	1.08
chain 5 I2D	1.47
chain 5 I2H	0.667
chain 5 I2C	0.933
chain 5 N4L	0.822
chain 5 N4W	1.01
chain 5 N4M	0.498
chain 5 N4Y	0.658
chain 5 N4R	1.32
chain 5 N4S	1.1
chain 5 N4A	1.32
chain 5 N4G	0.644
chain 5 N4P	1.38
chain 5 N4C	0.916
chain 5 N4D	1.23
chain 5 N4V	1.42
chain 5 N4F	1.51
chain 5 N4K	1.37
chain 5 N4T	1.64
